Assay results published in patent publication US20260258156A1 (TRIVENI BIO, published 2026).

Assays:
[1] = molecular target: T1, human KLK5, active form (human, UniProt Q9Y337 67-293); assay: cell-based or functional assay
[2] = molecular target: T2, human KLK7, active form (human, UniProt P49862 30-253); assay: cell-based or functional assay
[3] = molecular target: mouse KLK5 (mouse); assay: cell-based or functional assay
[4] = molecular target: T3, mouse KLK7 (mouse, UniProt Q91VE3 26-249, limits assumed); assay: cell-based or functional assay
[5] = molecular target: T1, human KLK5, active form; assay: SPR (Biacore), antibody captured on Protein A chip, KLK as analyte, single-cycle kinetics, 25 C
Experimental: (§1) All screening assays were performed at 25° C. The running buffer used was 20 mM HEPES, 300 mM NaCl, 0.01% Tween-20, pH 7.5. Antibodies (1 μg/mL) were captured on Fc2-4 of a Series S ProteinA Sensor Chip (Cytiva) flowing at 10 μL/min for 30 s. Kinetics measurements were made in single-cycle kinetics mode with a series of 4-5 concentrations with top concentration of 25-100 nM and serial dilution 4-fold. Contact time was typically 300 s and dissociation time ranged from 1800-3600 s. Flow rate of 30 μL/min was typically used. The sensor chip was regenerated with 10 mM glycine, pH 1.5 with a contact time of 30 s flowing at 50 μL/min.

[6] = molecular target: T2, human KLK7, active form; assay: as above
Experimental: as §1

[7] = molecular target: T4, mouse KLK5 (mouse); assay: as above
T4 construct: also called mKLK5
Experimental: as §1

[8] = molecular target: T3, mouse KLK7; assay: as above
Experimental: as §1

[9] = molecular target: T1, human KLK5, active form; assay: SPR (Biacore), antibody captured on Protein A chip, active huKLK5 injected at 0.156-40 nM
Experimental: (§2) The sensor chip was regenerated with 10 mM glycine, pH 1.5 with a contact time of 30 seconds flowing at 50 μL/min.

[10] = molecular target: T2, human KLK7, active form; assay: SPR (Biacore), antibody captured on Protein A chip, active huKLK7 injected at 0.156-40 nM
Experimental: as §2

[11] = molecular target: T5, pro-form of human KLK5 (human, UniProt Q9Y337 23-293); assay: SPR (Biacore), antibody captured on Protein A chip, proform huKLK5 injected at 0.156-40 nM
T5 construct: Pro-form (zymogen); also called proform of huKLK5; proKLK5
Experimental: as §2

[12] = molecular target: T6, pro-form of human KLK7 (human, UniProt P49862 23-253); assay: SPR (Biacore), antibody captured on Protein A chip, proform huKLK7 injected at 0.156-40 nM
T6 construct: Pro-form (zymogen); also called proform of huKLK7; proKLK7
T6 sequence (P49862 23-253): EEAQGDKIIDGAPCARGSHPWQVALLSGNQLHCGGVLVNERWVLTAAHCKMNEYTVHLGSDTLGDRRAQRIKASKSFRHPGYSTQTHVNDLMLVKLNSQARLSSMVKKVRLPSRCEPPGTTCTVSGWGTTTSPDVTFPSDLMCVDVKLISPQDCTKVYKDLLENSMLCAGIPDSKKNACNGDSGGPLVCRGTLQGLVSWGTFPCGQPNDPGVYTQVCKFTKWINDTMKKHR
Experimental: as §2

T3 sequence (Q91VE3 26-249 limits assumed): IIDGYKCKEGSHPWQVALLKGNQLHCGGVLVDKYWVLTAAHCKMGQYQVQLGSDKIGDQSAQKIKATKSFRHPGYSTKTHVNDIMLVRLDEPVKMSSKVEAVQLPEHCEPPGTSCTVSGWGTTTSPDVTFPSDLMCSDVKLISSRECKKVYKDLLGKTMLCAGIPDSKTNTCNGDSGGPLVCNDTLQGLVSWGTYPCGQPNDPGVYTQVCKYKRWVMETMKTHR
T2 sequence (P49862 30-253): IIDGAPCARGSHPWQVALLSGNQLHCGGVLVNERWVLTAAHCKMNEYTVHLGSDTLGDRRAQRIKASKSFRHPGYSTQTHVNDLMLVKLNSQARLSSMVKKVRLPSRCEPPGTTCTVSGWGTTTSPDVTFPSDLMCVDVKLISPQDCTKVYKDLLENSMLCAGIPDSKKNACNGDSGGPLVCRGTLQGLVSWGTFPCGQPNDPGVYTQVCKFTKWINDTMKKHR

| Binder | IC50(nM), inhibition of protease activity (cleavage of BOC-Val-Pro-Arg-AMC) [1] [nM] | IC50(nM), inhibition of protease activity (cleavage of KHLF-AMC) [2] [nM] | IC50(nM), inhibition of protease activity (cleavage of BOC-Val-Pro-Arg-AMC) [3] [nM] | IC50(nM), inhibition of protease activity (cleavage of KHLF-AMC) [4] [nM] | Kd [5] [nM] | Kd [6] [nM] | Kd [7] [nM] | Kd [8] [nM] | Kd [9] [nM] | Kd [10] [nM] | binding result [11] | binding result [12] |
| --- | --- | --- | --- | --- | --- | --- | --- | --- | --- | --- | --- | --- |
| KLK5/KLK7-Dual-Ab2 (antibody, V domains shown, Captured on a Protein A chip as an antibody; also called KLK5/7-Dual-Ab2) VH: QLQLQESGPGLVKPSETLSLTCTVSGGSISSDDYYWVWIRQPPGKGLEWIGSIDYFASTYYNPSLKSRVTISVDTSKNQFSLKLSSVTAADTAVYYCARGRPLGYGARHDYYGMDVWGQGTTVTVSS VL: DIQMTQSPSSLSASVGDRVTITCRASQSISSYLNWYQQKPGKAPKLLIYSASSLQSGVPSRFSGSGSGTDFTLTISSLQPEDFATYYCQQSPYFPPLTFGGGTKVEIK | 0.25 | 0.25 | 17.2 | 5.13 | 0.01 | 0.0218 | 2.79 | 1.55 | – | – | – | – |
| KLK5/KLK7-Dual-Ab1 (antibody, V domains shown, Captured on a Protein A chip as an antibody; also called KLK5/7-Dual-Ab1) VH: QLQLQESGPGLVKPSETLSLTCTVSGGSISSSDYYWGWIRQPPGKGLEWIGSIYYSGSTYYNPSLKSRVTISVDTSKNQFSLKLSSVTAADTAVYYCARGRPLGYGARHYYYGMDVWGQGTTVTVSS VL: DIQMTQSPSSLSASVGDRVTITCRASQSISSYLNWYQQKPGKAPKLLIYSASSLQSGVPSRFSGSGSGTDFTLTISSLQPEDFATYYCQQSPPFPPLTFGGGTKVEIK | – | – | – | – | 1000 | 1.82 | – | 1 | – | – | – | – |

The remaining binders from weak to strong by Kd [5], led by results:

| IC50(nM), inhibition of protease activity (cleavage of BOC-Val-Pro-Arg-AMC) [1] [nM] | IC50(nM), inhibition of protease activity (cleavage of KHLF-AMC) [2] [nM] | IC50(nM), inhibition of protease activity (cleavage of BOC-Val-Pro-Arg-AMC) [3] [nM] | IC50(nM), inhibition of protease activity (cleavage of KHLF-AMC) [4] [nM] | Kd [5] [nM] | Kd [6] [nM] | Kd [7] [nM] | Kd [8] [nM] | Kd [9] [nM] | Kd [10] [nM] | binding result [11] | binding result [12] | Binder |
| --- | --- | --- | --- | --- | --- | --- | --- | --- | --- | --- | --- | --- |
| 0.25 | 0.21 | 24.1 | 5.28 | 0.141 | 0.0136 | 4.02 | 1.11 | – | – | – | – | KLK5/KLK7-Dual-Ab3 (antibody, V domains shown, Captured on a Protein A chip as an antibody; also called KLK5/7-Dual-Ab3) VH: QLQLQESGPGLVKPSETLSLTCTVSGGSISSDDYYWVWIRQPPGKGLEWIGSIDYYASTYYSPSLKSRVTISVDTSKNQFSLKLSSVTAADTAVYYCARGRPLGYGAKHYYYGMDVWGQGTTVTVSS VL: DIQMTQSPSSLSASVGDRVTITCRASQSISSYLNWYQQKPGKAPKLLIYSASSLQSGVPSRFSGSGSGTDFTLTISSLQPEDFATYYCQQSPYFPPLTFGGGTKVEIK |
| 0.27 | 0.16 | 16.1 | 1.77 | 0.0243 | 0.002 | 3.15 | 0.129 | < 0.05 | < 0.05 | no binding (tested: 40 nM) | no binding (tested: 40 nM) | KLK5/KLK7-Dual-Ab4 (antibody, V domains shown, Captured on a Protein A chip or coupled to a CM5 chip as an antibody; also called KLK5/7-Dual-Ab4) VH: QLQLQESGPGLVKPSETLSLTCTVSGGSISSLDYYWVWIRQPPGKGLEWIGSIDYSGDTYYNPSLKSRVTISVDTSKNQFSLKLSSVTAADTAVYYCARGRPLGYGARHYYYAMDVWGQGTTVTVSS VL: DIQMTQSPSSLSASVGDRVTITCRASQSISSYLNWYQQKPGKAPKLLIYSASSLQSGVPSRFSGSGSGTDFTLTISSLQPEDFATYYCQQSPYFPPLTFGGGTKVEIK |
